Publication PMC10244696, “Thioredoxin TRXo1 is involved in ABA perception via PYR1 redox regulation” (Redox Biology, 2023)
Positions count from the first letter of the chain named.

Key:
[1] = target: T1, PYR1 in Arabidopsis leaf extracts (Arabidopsis thaliana (endogenous in Col-0 leaves)), O49686; assay: non-reducing SDS-PAGE and Western blot of oligomeric forms; leaf extracts of Arabidopsis, anti-PYR1; wild type extract without blocking or alkylating agent, also with 50 mM DTT or 4 mM H2O2 added; WT, KO and OEX Attrxo1 plants with or without 10 μM ABA for 48 h (extracts with 5 mM NEM); conditions: remark: other sources report otherwise
T1 chain: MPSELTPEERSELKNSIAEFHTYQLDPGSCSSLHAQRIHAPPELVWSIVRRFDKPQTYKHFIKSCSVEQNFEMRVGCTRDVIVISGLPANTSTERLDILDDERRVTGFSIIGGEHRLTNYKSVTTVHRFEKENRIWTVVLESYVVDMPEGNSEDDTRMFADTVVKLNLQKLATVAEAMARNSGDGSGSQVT

[2] = target: T2, recombinant HisAtPYR1 (Arabidopsis thaliana), O49686; assay: SDS-PAGE and Western blot of oligomeric forms; recombinant HisAtPYR1 or its Cys mutants in 20 mM Tris-HCl pH 7.9, untreated, with 4 mM H2O2, or 2 mM DTT and then 4 mM H2O2 (30 min, room temperature); 2.5 μg on SDS-PAGE, anti-AtPYR1; conditions: remark: other sources report otherwise
T2 chain: T1 chain

[3] = target: the molecule itself; assay: as above

B1: PYR1 in Arabidopsis leaf extracts, O49686 1-191 (receptor)
chain: T1 chain
stoichiometry N [1]: 2

B2: recombinant HisAtPYR1, O49686 1-191 (receptor)
chain: T1 chain
stoichiometry N [2]: 2

B3: HisAtPYR1C30S (receptor, Arabidopsis thaliana, UniProt O49686 1-191, looked up)
chain: T1 chain with C30S
notes: PYR1 of Arabidopsis thaliana (At4g17870) with Cys30 replaced by Ser; cloned in NcoI/EcoRI of pETM11; source: E. coli BL21, purified (Ni-NTA agarose)
amount of dimers, fold of PYR1 [3]: 0.3 fold

B4: HisAtPYR1C77S (receptor, Arabidopsis thaliana, UniProt O49686 1-191, looked up)
chain: T1 chain with C77S
notes: PYR1 of Arabidopsis thaliana (At4g17870) with Cys77 replaced by Ser; cloned in NcoI/EcoRI of pETM11; source: E. coli BL21, purified (Ni-NTA agarose)
amount of dimers, fold of PYR1 [3]: 0.6 fold

B5: HisAtPYR1C65S (receptor, Arabidopsis thaliana, UniProt O49686 1-191, looked up)
chain: T1 chain with C65S
notes: PYR1 of Arabidopsis thaliana (At4g17870) with Cys65 replaced by Ser; cloned in NcoI/EcoRI of pETM11; source: E. coli BL21, purified (Ni-NTA agarose)
amount of dimers, fold of PYR1 [3]: 2.3 fold
